T1: WW1 domain of WWOX (residues 16–50) (human, UniProt Q9NZC7 16-50)
T1 chain (looked up): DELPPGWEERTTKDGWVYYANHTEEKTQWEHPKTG

T2: WW1–WW2 tandem module of WWOX (residues 16–91) (human, UniProt Q9NZC7 16-91)
T2 sequence (looked up): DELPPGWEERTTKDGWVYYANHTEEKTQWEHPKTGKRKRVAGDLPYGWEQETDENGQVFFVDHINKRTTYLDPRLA


How the values were obtained:
Assay in all cases: ITC
[1] = target: T1, WW1 domain of WWOX (residues 16–50)
[2] = target: WW2W domain of WWOX (WW2 domain, residues 57–91, with the Y85W substitution) (human, UniProt Q9NZC7 57-91, Y85W)
Chain of WW2W domain of WWOX (WW2 domain, residues 57–91, with the Y85W substitution) (Q9NZC7 57-91 Y85W): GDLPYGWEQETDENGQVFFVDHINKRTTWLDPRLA

[3] = target: T2, WW1–WW2 tandem module of WWOX (residues …)

| Kd [1] [µM] | dH [1] [kcal/mol] | Kd [2] [µM] | dH [2] [kcal/mol] | Kd [3] [µM] | dH [3] [kcal/mol] | Binder |
| --- | --- | --- | --- | --- | --- | --- |
| 383 | -6.88 | 680 | -4.74 | 170 | -7.25 | FNIPPPIYTSRA [ErbB4_PY1 peptide (12-mer spanning the PY1 PPXY motif of the ICD of ErbB4)] |
| 362 | -3.66 | 620 | -8.08 | 175 | -4.88 | GHSPPPAYTPMS [ErbB4_PY2 peptide (12-mer spanning the PY2 PPXY motif of the ICD of ErbB4)] |

Reference: PMC3906126 (Biochemistry, 2013)
